Measured values as given in patent publication US20090291081A1 (AbbVie / Abbott, published 2009).
Changes are numbered by the printed parent chain. Where “and” joins values, the source holds several entries; their conditions need not be identical. Equal values may be shown once. Read-outs that look alike come from different tables or passages of the source. Each block holds one binder with its values, some of them ahead of it.

Experiments:
human IL-1β [1] = target: T1, human IL-1β (human, UniProt P01584 117-269); assay: cell-based or functional assay
human IL-1α [2] = target: T2, human IL-1α (human, UniProt P01583 113-271); assay: cell-based or functional assay
T2 sequence (looked up): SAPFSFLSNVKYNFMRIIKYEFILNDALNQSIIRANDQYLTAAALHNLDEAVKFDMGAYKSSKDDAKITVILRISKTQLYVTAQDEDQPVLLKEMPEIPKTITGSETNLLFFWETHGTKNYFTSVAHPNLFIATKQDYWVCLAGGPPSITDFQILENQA

human IL-1β [3] = target: T1, human IL-1β; assay: cell-based or functional assay; remark: listed apart in the source
human IL-1α [4] = target: T2, human IL-1α; assay: method not given
human IL-1α [5] = target: T2, human IL-1α; assay: BIAcore, IL-1α coated chip, dAb flowed over
human IL-1α [6] = target: T2, human IL-1α; assay: cell-based or functional assay; remark: listed apart in the source
human IL-1α [7] = target: T2, human IL-1α; assay: cell-based or functional assay; remark: listed apart in the source
human IL-1β [8] = target: T1, human IL-1β; assay: cell-based or functional assay; remark: listed apart in the source
human IL-1α [9] = target: T2, human IL-1α; assay: BIAcore kinetic analysis of the dAb
human IL-1α [10] = target: T2, human IL-1α; assay: cell-based or functional assay; remark: listed apart in the source
human IL-1α [11] = target: T2, human IL-1α; assay: cell-based or functional assay; remark: listed apart in the source
human IL-1α [12] = target: T2, human IL-1α; assay: BIAcore kinetic analysis of the dAb; remark: listed apart in the source
human IL-1α [13] = target: T2, human IL-1α; assay: cell-based or functional assay; remark: listed apart in the source
human IL-1α [14] = target: T2, human IL-1α; assay: Receptor Binding Assay, IgG; value beside the ABT1 clone
human IL-1β [15] = target: T1, human IL-1β; assay: Receptor Binding Assay, IgG; value beside the ABT2 clone
human IL-1α [16] = target: T2, human IL-1α; assay: cell-based or functional assay; remark: listed apart in the source
human IL-1α [17] = target: T2, human IL-1α; assay: BIAcore kinetic analysis of the dAb; remark: listed apart in the source
human IL-1β [18] = target: T1, human IL-1β; assay: cell-based or functional assay; remark: listed apart in the source

MRC-5 IL-1β neutralization potency (human IL-1β [1]): ~0.35 nM
B1: ABT2-108-605/ABT1-122 hu IgG1/K wt (bispecific antibody, V domains shown)
VH: EVQLLESGGGLVQPGGSLRLSCAASGFTFAEYTMMWVRQAPGKGLEWVSRIGQDGKNTYYREDVKGRFTISRDNSKNTLYLQMNSLRAEDTAVYYCAKYTGRVGVHHLFDYWGQGTLVTVSS
VL: DIQMTQSPSSLSASVGDRVTITCRASQPIWTELNWYQQKPGKAPKLLIYGSSSLQSGVPRFSGSGSGTDFTLTISSLQPEDFATYYCQQFAYFPATFGQGTKVEIKR

IL-1α IC50 (human IL-1α [2]): 150 nM
IL-1β IC50 (human IL-1β [3]): 0.05 nM
MRC-5 IL-1β neutralization potency (human IL-1β [1]): ~0.05 nM
B2: ABT2-108-620x/ABT1-122 huIgG1/K wt (bispecific antibody, V domains shown)
VH: B1 VH with Y32E, T33S, M34W, V103I, G104M, V105G
VL: B1 VL

Kd (human IL-1α [4]): 40 nM
Kd (human IL-1α [5]): 32 to 42 nM
B3: ABT1-95-2 (other)
VL: DIQMTQSPSSLSASVGDRVTITCRASQPIHGNLRWYQQKPGKAPKLLIYSSSYLQSGVPSRFSGSGSGTDFTLTISSLQPEDFATYYCQQGYRWPVTFGQGTKVEIK
notes: dAb, Vκ, to IL-1α

MRC5 ND50 (human IL-1α [6]): 5 nM
B4: ABT1-141-25 (other)
VL: DIQMTQSPSSLSASVGDRVTITCRASQWIQKQLAWYQQKPGKAPKLLIYSSSYLQSGVPSRFSGSGSGTDFTLTISSLQPEDFATYYCQQHLRVPMTFGQGTKVEIKR

MRC5 ND50 (human IL-1α [6]): 1 nM
B5: ABT1-141-76 (other)
VL: B4 VL with S26N, Y53H

MRC5 ND50 (human IL-1α [6]): 1 nM
B6: ABT1-141-47 (other)
VL: B4 VL with S26N, Y53H, E81Q

MRC5 IL-1α (human IL-1α [7]): 80 nM
MRC5 IL-1β (human IL-1β [8]): 8 nM
IL-1α IC50 (human IL-1α [2]): 40 nM
IL-1β IC50 (human IL-1β [3]): 8 nM
MRC-5 IL-1β neutralization potency (human IL-1β [1]): ~8 nM
B7: ABT2-108/ABT1-122-511 hu IgG1/K wt (bispecific antibody, V domains shown)
VH: EVQLLESGGGLVQPGGSLRLSCAASGFTFAEYTMMWVRQAPGKGLEWVSRIGQDGKNTYYADSVKGRFTISRDNSKNTLYLQMNSLRAEDTAVYYCAKYTGRVGVHHLFDYWGQGTLVTSS
VL: DIQMTQSPSSLSASVGDRVTITCRASQPIWTELNWYQQKPGKAPKLLIYGSSSLQRGVPSRFSGSGSGTDFTLTISSLQPEDFATYYCKQFAYFPATFGQGTKVEIKR

IL-1β IC50 (human IL-1β [3]): 0.01 nM and 0.02 nM and 0.03 nM
MRC-5 IL-1β neutralization potency (human IL-1β [1]): ~0.03 nM
B8: ABT2-108-620x/ABT1-122-511 huIgG1/K wt (bispecific antibody, V domains shown)
VH: B1 VH with Y32E, T33S, M34W, V103I, G104M, V105G
VL: B7 VL

IL-1β IC50 (human IL-1β [3]): 15 nM and 20 nM and 40 nM
MRC-5 IL-1β neutralization potency (human IL-1β [1]): ~15 nM
B9: ABT2-108/ABT1-122 hu IgG1/K wt (bispecific antibody, V domains shown)
VH: B7 VH
VL: B1 VL

Kd (human IL-1α [9]): 61 nM
koff (human IL-1α [9]): 0.012 s⁻¹
kon (human IL-1α [9]): 200000 M⁻¹ s⁻¹
MRC5 ND50 (human IL-1α [10]): 0.03 µM
MRC5 ND10 (human IL-1α [11]): 3 nM
MRC5 ND50 (human IL-1α [11]): 30 nM
B10: ABT1-6-23 (other)
VH: EVQLLESGGGLVQPGGSLRLSCAASGFTFVRYDMAWVRQAPGKGLEWVSSIYKSGALTSYADSVKGRFTISRDNSKNTLYLQMNSLRAEDTAVYYCAKGWASFDYWGQGTLVTVSS
notes: dAb, VH, to IL-1α; also called dAb ABT1-6-23

MRC5 ND50 (human IL-1α [10]): 15 µM
B11: ABT1-6 (other)
VH: B10 VH with V30G, R31A, A35Q, Y52N

MRC5 ND50 (human IL-1α [10]): 2 µM
B12: ABT1-6-15 (other)
VH: B10 VH with Y52N

MRC5 ND50 (human IL-1α [10]): 0.08 µM
B13: ABT1-6-3 (other)
VH: B10 VH with V30G, R31A, A35Q

Kd (human IL-1α [4]): 200 nM
MRC5 ND10 (human IL-1α [11]): 150 nM
MRC5 ND50 (human IL-1α [11]): 700 nM
Kd (human IL-1α [12]): 45 nM
koff (human IL-1α [12]): 0.022 s⁻¹
kon (human IL-1α [12]): 490000 M⁻¹ s⁻¹
B14: ABT1-95 (other)
VL: DIQMTQSPSSLSASVGDRVTITCRASQPIHGNLRWYQQKPGKAPKLLIYNISNLQSGVPSRFSGSGSGTDFTLTISSLQPEDFATYYCQQGYRWPVTFGQGTKVEIKR
notes: dAb, Vκ, to IL-1α; also called dAb ABT1-95

Kd (human IL-1α [4]): 40 nM
Kd (human IL-1α [5]): 20 to 42 nM
B15: ABT1-95-1 (other)
chain: B14 VL with Y87H

MRC-5 IL-1a inhibition assay EC50 (human IL-1α [13]): 5.07 nM
IL-1α IC50 (human IL-1α [2]): 5 nM
IL-1β IC50 (human IL-1β [3]): 0.04 nM
B16: ABT2-108-620x/ABT1-95-15 huIgG1/K wt (bispecific antibody, V domains shown)
VH: B1 VH with Y32E, T33S, M34W, V103I, G104M, V105G
VL: B14 VL with H30V, G31R, N50S, I51S, N53Y, Q55E, S56P, Y87H

IC50 (human IL-1α [14]): 0.54 nM
MRC5 IL-1α (human IL-1α [7]): 8 nM
MRC5 IL-1β (human IL-1β [8]): 0.042 nM
IC50 (human IL-1β [15]): 0.071 nM
B17: ABT2-108-538x/ABT1-95-15 huIgG1/K wt (bispecific antibody, V domains shown)
VH: EVQLLESGGGLVQPGGSLRLSCAASGFTFADEGMMWVRQAPGKGLEWVSRITYSGKNTYYADSVKGRFTISRDNSKNTLYLQMNSLRAEDTAVYYCAKYTGRILGHHLFDYWGQGTLVTVSS
VL: B14 VL with H30V, G31R, N50S, I51S, N53Y, Q55E, S56P, Y87H
notes: hu IgG1/K wt

Kd (human IL-1α [4]): 0.9 nM
MRC5 ND50 (human IL-1α [16]): 0.9 nM
B18: ABT1-95-4 (other)
VL: B14 VL with H30V, G31R, N50S, I51S, N53Y, Y87H
notes: dAb, Vκ, to IL-1α

Kd (human IL-1α [17]): 110 nM
koff (human IL-1α [17]): 0.09 s⁻¹
kon (human IL-1α [17]): 820000 M⁻¹ s⁻¹
MRC5 ND10 (human IL-1α [11]): < 200 nM
MRC5 ND50 (human IL-1α [11]): 900 nM
B19: ABT1-86 (other)
VH: EVQLLESGGGLVQPGGSLRLSCAASGFTFDRYIMAWVRQAPGKGLEWVSSITPSGAATYYADSVKGRFTISRDNSKNTLYLQMNSLRAEDTAVYYCAEEPADRYSTWTFDYWGQGTLVTVSS
notes: dAb, VH, to IL-1α

IC50 (human IL-1α [14]): 0.083 nM
MRC5 IL-1α (human IL-1α [7]): 0.017 nM
MRC5 IL-1β (human IL-1β [8]): 0.15 nM
IL-1α IC50 (human IL-1α [2]): 0.026 nM and 0.0178 nM
IL-1β IC50 (human IL-1β [3]): 0.17 nM
IC50 (human IL-1β [15]): 0.709 nM
B20: ABT2-65-166/ABT1-95-A3 huIgG1/K wt (bispecific antibody, V domains shown)
VH: EVQLLESGGGLVQPGGSLRLSCAASGFTFEDYQMGWVRQAPGKGLEWVSSISAMGGRTYYADSVKGRFTISRDNSKNTLYLQMNSLRAEDTAVYYCAQNLVRLGRSRWMFDYWGQGTLVTVSS
VL: DIQMTQSPSSLSASVGDRVTITCRASKPGVRNMRWYQQKPGKAPKLLIYSVSYLEPGVPSRFSGSGSGTDFTLTISSLQPEDFATYHCLQGYRWPPTFGQGTKVEIKR
notes: hu IgG1/K wt; also called 1-95-A3 / 2-65-166

MRC5 ND50 (human IL-1β [18]): 2 nM
B21: ABT2-65-17 (other)
VH: B20 VH with A23V, G56N, N74D

MRC5 ND50 (human IL-1β [18]): 4 nM
B22: ABT2-65-166 (other)
VH: B20 VH

IC50 (human IL-1α [14]): 0.067 nM
MRC5 IL-1α (human IL-1α [7]): 0.08 nM
MRC5 IL-1β (human IL-1β [8]): 0.121 nM
IC50 (human IL-1β [15]): 0.073 nM
B23: IgG pairing ABT1-95-A2 with ABT2-65-166 (bispecific antibody, V domains shown)
VH: B20 VH
VL: B20 VL with A25I, S26L, K27Q, G29P, V30G, M33L, V51K, Y53F, L89Q, P96V
notes: IgG; also called 1-95-A2 / 2-65-166

IC50 (human IL-1α [14]): 0.108 nM
MRC5 IL-1α (human IL-1α [7]): 0.019 nM
MRC5 IL-1β (human IL-1β [8]): 0.207 nM
IL-1β IC50 (human IL-1β [3]): 0.32 nM
IC50 (human IL-1β [15]): 0.537 nM
B24: ABT2-65-166/ABT1-95-A6 hu IgG1/K wt (bispecific antibody, V domains shown)
VH: B20 VH
VL: B20 VL with S50A, V51K, L89K, P96V, T97Q
notes: hu IgG1/K wt; also called 1-95-A6 / 2-65-166
